According to patent US20220162649A1, “NOVEL NUCLEIC ACID MODIFIERS” (THE BROAD INSTITUTE, INC., priority 2019, published 2022):
Positions count from the first letter of the chain named. In names and notes the source's numbering stands.

B1: D556A: SaCas9 HNH catalytic residue mutant (protein, UniProt J7RUA5 1-1053, looked up, variant D556A)
CRISPR-associated …: MKRNYILGLDIGITSVGYGIIDYETRDVIDAGVRLFKEANVENNEGRRSKRGARRLKRRRRHRIQRVKKLLFDYNLLTDHSELSGINPYEARVKGLSQKLSEEEFSAALLHLAKRRGVHNVNEVEEDTGNELSTKEQISRNSKALEEKYVAELQLERLKKDGEVRGSINRFKTSDYVKEAKQLLKVQKAYHQLDQSFIDTYIDLLETRRTYYEGPGEGSPFGWKDIKEWYEMLMGHCTYFPEELRSVKYAYNADLYNALNDLNNLVITRDENEKLEYYEKFQIIENVFKQKKKPTLKQIAKEILVNEEDIKGYRVTSTGKPEFTNLKVYHDIKDITARKEIIENAELLDQIAKILTIYQSSEDIQEELTNLNSELTQEEIEQISNLKGYTGTHNLSLKAINLILDELWHTNDNQIAIFNRLKLVPKKVDLSQQKEIPTTLVDDFILSPVVKRSFIQSIKVINAIIKKYGLPNDIIIELAREKNSKDAQKMINEMQKRNRQTNERIEEIIRTTGKENAKYLIEKIKLHDMQEGKCLYSLEAIPLEDLLNNPFNYEVAHIIPRSVSFDNSFNNKVLVKQEENSKKGNRTPFQYLSSSDSKISYETFKKHILNLAKGKGRISKTKKEYLLEERDINRFSVQKDFINRNLVDTRYATRGLMNLLRSYFRVNNLDVKVKSINGGFTSFLRRKWKFKKERNKGYKHHAEDALIIANADFIFKEWKKLDKAKKVMENQMFEEKQAESMPEIETEQEYKEIFITPHQIKHIKDFKDYKYSHRVDKKPNRELINDTLYSTRKDDKGNTLIVNNLNGLYDKDNDKLKKLINKSPEKLLMYHHDPQTYQKLKLIMEQYGDEKNPLYKYYEETGNYLTKYSKKDNGPVIKKIKYYGNKLNAHLDITDDYPNSRNKVVKLSLKPYRFDVYLDNGVYKFVTVKNLDVIKKENYYEVNSKCYEEAKKLKKISNQAEFIASFYNNDLIKINGELYRVIGVNNDLLNRIEVNMIDITYREYLENMNDKRPPRIIKTIASKTQSIKKYSTDILGNLYEVKSKKHPQIIKKG
B2: N580A: SaCas9 HNH catalytic residue mutant (protein, UniProt J7RUA5 1-1053, looked up, variant N580A)
CRISPR-associated …: B1 CRISPR-associated … with A556D, N580A
B3: H557A: SaCas9 HNH catalytic residue mutant (protein, UniProt J7RUA5 1-1053, looked up, variant H557A)
CRISPR-associated …: B1 CRISPR-associated … with A556D, H557A

Experiments:
NHEJ pathway = experiment: HiBiT assay of HDR enhancement by small-molecule NHEJ pathway inhibitors; type: cell-based
target DNA = conditions: SaCas9 mutants; cited from earlier work

Molecule | HDR enhancement in the HiBiT assay (NHEJ pathway) | DNA cleavage activity, in words (target DNA)
O=c1cc(N2CCOCC2)oc2c(-c3cccc4c3sc3ccccc34)cccc12 [KU-57788] | enhanced HDR enhancement | 
CCN1CCN(CC(=O)Nc2ccc(-c3cccc4c(=O)cc(N5CCOCC5)oc34)c3sc4ccccc4c23)CC1 [KU-0060648] | enhanced HDR enhancement | 
B1 |  | almost no DNA cleavage activities
B2 |  | almost no DNA cleavage activities
B3 |  | almost no DNA cleavage activities
